Results on 23 sequences are retold here after the DeepSol protein solubility set.

A short description of the series: soluble on expression in E. coli; label from the status in PepcDB or PDB records.
As to “MLQINRHILDNGLRLVHAQDTSTQMVALNILYNVGARDENPEHTGFAHLFEHLMFGGSVNIPDYDAPLQLAGGENNAWTNNDITNYYLTVPRQNVETGFWLESDRMLSLDFSERSLEVQRGVVMEEFKQRCLNQPYGDVGHLLRPLAYRVHPYQWPTIGKELSHIANATLEEVKDFFFRFYAPNNAVLAVTGNISFEEALHLTEKWFGPIPRREVPLRQLPPEPVQTEERRLVVERNVPLDSLFMAYHMCDRADSDYYAFDILSDILSNGRSSRLNQHLVQEKQLFSSIDAYISGTLDAGLFHISGKPAAGVSLEEAEAAVREELNELQSALIQEQELEKVKNKFESTQIFGNINYLNVATNLAWFELNGRAEDMEKEVERYRAVTADRLNAVAQTAFREENGVVLYYKSSRGEKDETYI”, the “soluble on expression in E. coli” value was “not soluble”.
“MLQRTLAKSISVTGVGLHSGERVALTLHPAPENSGISFRRTDLDGEMGEQIKLTPYLINDTRLSSTIVTDKGVRVGTIEHIMSALSAYGIDNALIELNAPEIPIMDGSSLPFIYLLQDAGVVDQKAQKRFLKILKPVEIKEAGKWVRFTPYDGFKVTLTIEFDHPVFNRSSPTFEIDFAGKSYIDEIARARTFGFMHEVEMMRAHNLGLGGNLNNAIVIDDTDVLNPEGLRYPDEFVRHKILDAIGDLYIVGHPIIGAFEGYKSGHAINNALLRAVLADETAYDRVEFADSDDLPDAFHELNIRTCGLEHHHHHH”: the “soluble on expression in E. coli” value is “not soluble”.
To “MLQVCCYTSEGYKYAVGIDLVRFFDTVNHSFLLRILSRTINDGRVISLIHKYLTSGVMIGKHYEPSIEGTPQGAPLSPLLSNILLNELDKELERRGHCFVRYADDSMILCKSKRSAERVCSSITDFSFYFTKGKCRLCVHKTTKEKFKRKVKSLTRRSNSMGYAQRKEILWQTFRGWIGYFKYADMRSLLIPLDQWYRRHLRMCIWKCWKRVKTRFSNLQKCGIPKGKA” belongs “not soluble”.
On to “MLQVLGRLINILFPLLRFILGIWWEKLRGKDPTVSRAKAIQLRELLTNLGPTYIKVGQALSTRPDLVPPVFLDELTTLQDQLPSFPNEVAYRFIEEELGAPAEEIYAELEHHHHHH”, for which the “soluble on expression in E. coli” value is reported as “not soluble”.
Next, “MLRATNNRRTSNNVEKDSLQMAKHGNGPLKPVNAQGLQTKREAREILALKPSNPAPVETAQKSQRINLQDAETKCLAMADDIYKYLVHHEKKYLLEECFMEGGEPTPKMRRILVDWLVQVHVRFHLTPETLHLTVFILDRMLQKKVTSKADLQLLGISAMFVASKFEEVYLPDIHDYEFITENTYSKKQILAMEQTILNSLNFDLSCPSSLVFLRCLSRILSENDASPIDNQAFCYTYNISKCLGELALLDSVMASTPRSHIASASMIIALEVHPVDGIEAENAVSVICKQLGASKKVIEDAVALLAEVSYKNFKQGKLVAIKNKYQSSKLAQVSNLMTDDVLEKINRMGQNAKVDASEME”: “soluble”; “MLRCADGALYTGVSTDVARRYRQHQAGKGARYTRLNPPLAVELVIEYPDRSAALRAEHAFKRLSAAAKRDFLRAHGDAGPSSLEHHHHHH”: “not soluble”.
Next, “MLRDLRETDVKAICDINQEALGYTFSPEETASQLARLSQDSHHFLLGYEDAANHVLLGYVHAEVYESLYSKAGFNILALAVSPQAQGQGIGKSLLQGLEEEAKRCGYGFIRLNSANHRLGAHAFYEKVGYTCDKMQKRFIRIC”: “not soluble”; “MLRIAKEALTFDDVLLVPAHSTVLPNTADLSTQLTKTIRLNIPMLSAAMDTVTEARLAIALAQEGGIGFIHKNMSIERQAEEVRRVKKHESGVVTDPQTVLPTTTLHEVKALTERNGFAGYPVVTEDNELVGIITGRDVRFVTDLNQPVSVYMTPKERLVTVREGEAREVVLAKMHEKRVEKALVVDDNFHLLGMITVKDFQKAERKPNSCKDEQGRLRVGAAVGAGAGNEERVDALVAAGVDVLLIDSSHGHSEGVLQRIRETRAKYPDLQIIGGNVATGAGARALAEAGCSAVKVGIGPGSICTTRIVTGVGVPQITAVSDAVEALEGTGIPVIADGGIRFSGDIAKAIAAGASAVMVGSMLAGTEESPGEIELYQGRSYKSYRGMGSLGAMSKGSSDRYFQSDNAADKLVPEGIEGRVAYKGRLKEIIHQQMGGLRSCMGLTGCATIDELRTKAEFVRISGAGIQESHVHDVTITKESPNYRLGS”: “not soluble”; “MLRISRDLVIDEDDIEIGFVRASGPGGQNVNKVATSAQLRFDTRKLTLPEDATIRLARIAGQRMTKDGVIVIHAQRFRTQERNRQDAIDRLVEILSEAMIRPKPRRATRPTFGSKQRRLEGKKRRSDVKAGRGRSFDDLEHHHHHH”: “soluble”.
With “MLRKADIKDLNACLSLFEQSVKTLCAKDYTKDQICAWIKIDRQQWEEKFKYDEIFVYEKRGKIASFISVKQEQKLLDLLFTHPDFVRQGLAQNLLDFILKTYLHNEIYTFASLSAKDFFLKNGFELIRENKVIKEGQNLKKILMKKDVIYKN”, the “soluble on expression in E. coli” value is reported as “not soluble”.
Regarding “MLRKQARQRREYLYNKALTERLKSKQKIQETVVKSINENKAIGSKNVKKSLTAYKSLKYADEGVDDRTVNDEYHYAGCEDPKIMLTTSHNPSSRLKMFMKELRLIIPNAQQMNRGNYQLTTLMHACRANNVTDFLIVHEHRGIPDSLVVCHLPYGPTAFFNISDVVMRHDIPDIGHMSEQKPHLIFNNFKTPIGLRTVKILKHLFPVPKENSQRVMSFLNHNDSIIFRHHQYKYVNKELELTEVGPRFSLKLYQIKLGTLENIKAADTEWINRPYMNTSQKRLIFSNDPGIINKDTEALEHHHHHH”, the “soluble on expression in E. coli” value was “soluble”.
To “MLRLFKIQKAPLSQFSKASNEIVKDFIEKMEKAAGSGDKVKFSDCFTEDFQFFACSFTANKAQFVEKHLTNPNPEPVIPKYSNFDENDSKIKFTVSRRVGPEVNIVDFDLLRENDGPWRLQWGKVTTCP” belongs “not soluble”; to “MLRRKPTRLELKLDDTEEFESVKKELESRKKQRDEVDVVGVATSSEMSGAAGGTADGKTREQMIHERIGYKPHPKPNTLPSLFGNLQF”, “soluble”; to “MLRSFTIRTAKRDEMIDITSFVEETVRQANVTEGIAVVYCPHTTAGITINENADPDVKRDMMRRFDETYPWEHPLDRHMEGNTAAHMKASTVGASQHVIIHEGRLLLGRWQGVYFCEYDGPRHRTFYVKVIGG”, “not soluble”.
As for “MLRSTVIVTAHRRKAFIKDAIESVMENSLKPTEIIVVKNFKDYQIDSFLETYHVKNIYTDDETLGGKISLGIYQSSGDILFFLDDDDLFSKDKIREVIYKFSKYDIGFYHNAQEVIHNKLTGSNLSTDNQRFMYYTSIDTRRLKELLYKFKAGFNGSSIVISRDLAMRCVDLLKNVNISVDTFLLFCAVENNLPIMIDFRKLTYYRIIMSQNSNTEVNDKLFKMLYEDALYFKQIFSSKALRDFIEMSIIQHDFLYKIISKKEISKRDALISMVKMLRYSLKYPNKWNFFLQGLSLLSVFSAEKSRSLYLKKVRSNSMLSILEHHHHHH”, the “soluble on expression in E. coli” value is “soluble”.
Next, “MLRYFRAFLPKEERFFDLFAQHTHTVVQGAQALQDMLRGGDETLVHCQRVSHFESEADNITREVLTAVRRTFITPFDRVDIKNLITSMDDAIDQMQQTAKAVILFEVREFEPPMREIGTLLVESANLVGRAVPLMQSIGPNLQMLTAMTEEITKLEGRVDDLHDIGLKELFLKHRNANTMDYIVGAEIYDHLEKVADRFDDVANEINSIVIEQVAAALEHHHHHH”: “soluble”; “MLSGPHPSPTFRPNPCPWPCLHSLWMEISPTQLCFLSPGPSPQSPSCCFQGMNSGSELGKLWRKLFKGIPRLSVSHFDFYCGTCVLLGRPQIPQGSSLGNDIDQYPVVFRNASDQGSWMQLEMLLRKLSDLVWTSDALSDKILEDGLVP”: “soluble”; “MLSKGAVIDKLKSYKPCENCNGPISKTVSISDLNLDKRKRNCVCGNSQLDDVMLDVLNLMSEYNELQNTDLKDVTLRDAGTPLVEIGYPLKYLPVVSNDELIVMKDVSKACATEILKIPEVKGVISNNSKNNSFNRVEDSGEVNALIAGDDFRCDIFVLKSIMDCVVICKNQSKVHIEFPRPFNPKIAKIDRLNLKGKVVVDGFCGSGTLGLAALKKGAKKVIFSDINPHALKDVIYNLKLNFSKEVFDRIEIINSDFLNLDIVGDVCFVDLFPHMDKEPFLNKAKTISKQVVLILEHHHHHH”: “not soluble”.
Next, “MLSKRLLNFESFEVMDILALAQKLESEGKKVIHLEIGEPDFNTPKPIVDEGIKSLKEGKTHYTDSRGILELREKISELYKDKYKADIIPDNIIITGGSSLGLFFALSSIIDDGDEVLIQNPCYPCYKNFIRFLGAKPVFCDFTVESLEEALSDKTKAIIINSPSNPLGEVIDREIYEFAYENIPYIISDEIYNGLVYEGKCYSAIEFDENLEKTILINGFSKLYAMTGWRIGYVISNDEIIEAILKLQQNLFISAPTISQYAALKAFEKETEREINSMIKEFDRRRRLVLKYVKDFGWEVNNPIGAYYVFPNIGEDGREFAYKLLKEKFVALTPGIGFGSKGKNYIRISYANSYENIKEGLERIKEFLNK”: “soluble”.
To “MLSKTVFDASQERMEVIFSEFDNIIVSFSGGKDSAVMLHLMIDYIRKNNIQKKIYVYHLDYEGQYSATSDFVAEMLTSNLDIIEPLWCCLPIAAQSAVSMYTDHWIPWEKSKQDIWVREMPDYPSVINEDNAPFDFDFHTIWDYEFNKKLIHWLHTKNKAEKTIALIGIRQQESLNRYNAIHKKERMYKNYNWTTEISKNIYNAYPIHDWLVEDIWTANAKFDWPYNKIYDLFYQAGLTLNDMRVASPFNDSATESLKLYRVIEPALWSKLVGRVNGANFTAIYGGTSAMAWKEINLPPNHTWKSYLEFLLTTLPSYTRERYLKKFKTSINYWTEKGGALKVETVEELKNLNVQADFLGKPQNKRTYSNPMEIVRFKEYPDDLKIKEFASVPTYKRMCIAILKNDYTCKYMGFGQTKLELEKRKHALEKYNNIL” belongs “not soluble”; to “MLSLTAHLVLISTIIVKCSAFSKKPSERAKPAAVKKAVEDKQPVKVTAFEQASLNEDKAEAMSNIEPSPKISNSTVPTAPTPKKEKKVVATTKKTERSVAQGPPLVSEHIKDEKKMPSVHKPIRKGSIYANELLTEKPLTDTEPELHPDNHVVKAKSPKPVARTPTARHRNALKPGKINDKSDDTLHDAPSIQKVGGPSYEDAASVNEKEKDVNPK”, “not soluble”.
Turning to “MLSMLSKISFTRPQAQELLRRLQAPRHLLQVVLGPRQVGKTTLALQVAQTCGLPYHYASADEPTLKEAPWLETQWTLARRLAQAGEALLVLDEAQKVLGWSETLKRLWDEDTLRGLPLKVVLLGSSPLLLQKGLSESLAGRFEVLHLPHWSFYEMERAFGYTLPEYLYFGGYPGAAPLREEPERFARYIKDALLETTLGRDILLHTRVEKPALLRRVLELGLLYSGQVLSYTKMLGQLQDAGNTVTLAYYLELLEGAGLLGALQKYAAEPIRRRASSPKLLALNTGLITAVLGLSPEEVWEDAALMGRLVETAVGAHLLAHAHQGGFEVYYWRERDQEVDFVLQKGKRLLALEVKSAPSKRTQGLEAFTRTFGAKGLLVGPEGVPLEAFLRDNPLNFL”, the “soluble on expression in E. coli” value is listed as “soluble”.
Next, “MLSSKFPLLVATDLSPTGKVVLEKAFKLAKRYHKPLFILHVSETTLFAPKIIELTQIEANLCKLLEPFYARYPEVKATLLCRQGGIEESIISAIKETQASLLLIGTSGEDNLLREFFLGSHCRKIIRSSTIPVLVVKNEEESDYSKIFIPTDFSPSSQKMANLTLHLFPHAYISLFHVILKPFEQRLGMYGLDKDEILRYHKDIDNQSASEADHFIEKLKLPSGKHRIKLLMETGVFSAKLCLQKVKEAQSDLIALNTTGNISFFSMDILNQSPKDVLIFKTDSE”: “not soluble”.
